Reference: the DeepSol protein solubility set

Test: soluble on expression in E. coli; label from the status in PepcDB or PDB records

| Sequence | soluble on expression in E. coli |
| --- | --- |
| MEEVEEFKYEPKSVKEIFIEMKDTVELMVDLAYASLLFGDKEIAEEVLELEERIDLLNYQLMMHSVLAARNVKEAEQVITILQIANAIEDISNAAGDLAKMVLEGVELHPVIKETILEGEEIIGKIQVYPESVIVGKTLGELDLATNTGVWIIAVRRGKRWIFGPNENFKIRAGDVLIGRGTRTSIDHLKEIARGAIRVIGNERA | soluble |
| MVTLSLPNMEGRREQLIAQVESILASAADGRVQKTKETQSVDFKEEAGRRNGPQIEPGKPENPEAADKLADEVACMANTPGGGALIVGIEDKTGRIIGTELDIDWLRQGIFTRIDVAPDVVAKRVLGQRVLAIYVAAAAEPIEDTSDRLRWRVGDSCRPVDRAEWWEYQRAQSGFDPMAQVTTATLGDARPAALALARKWDPAFAELTDEELLRGIGALDAEGFLSQAGKLLFTSLDRTAIELSIFDVHGGQVLNRVVPEPEKSCLEQLDYLEQALNVVNKNNTVVEGFVHKPVPEIPRLAVREAMLNAMIHRDWNRSEPIDVRWIELDSTLIVRSPGGFPAAITSENVLSNRAARYPALADLYRALGLVDKQGVGVDRMYQAMIALGHRPPTIEEIAGPFVETTLVGGRPVLPVLELVSSIVPEARQDDYRIAIVLYLLFQRPFITIDVVARGLQSGKEAARNALEAARQTTVAGAPLIIAHDGVWLLGNACREILRKVEPSPFSPVRYLSTDQAELTNAAMLWLSEVGDLATSDLMAMCGVSRGTAKACVDGLVDEERVVAVGGGRSRRYRLVELEHHHHHH | soluble |
| MSLSDDDVDNVIEVARDSWKWTYKDIYSDEFIENWISEKYSKEKLLNEITKSQLNLDLVFLGSFHESKLIGFIELKISSSKAELLRLYLRPEYTHRGVGRILLSEAEELVKKRDVEECILYVHKKNYIATSFYKKNGFQVKDIYGDDLIMIKRYKVEGHHHHHH | not soluble |
| MIVDMRLRPPIPGFARSTLYQAGPKTSHPDFPVEPSVGQCSLPLLISEMDAAGVAVGVVPGRYSMEPFGIVSNDELATLFADHPGRFVGFMGLDLGWPMQRMLDEIDARVGTPGFRGVALEPTISADASFCGMNDKRLYPIYEACVKHGVPVSVTLSAVLQAFTKRPYEHSNPVQAYQVAIDFPGLDIVIAHAAYPWVMEMIGVCLTCPNVWLSPDLYLTNVFPGAQEYAKAAATYLPRRTLFGTGYPAKPFKPMIDAYAAWGWPQDVVAAILGGNAARLLRLADQLEHHHHHH | not soluble |
| MEDKLVTLAILTYTKAQILKNVLENEGIETYIHNVNQIQPVVSSGVRLRIKESDLPRALKITESSTWLSESIVGEKTPKVDSKSNKILIPVDFSNYSMKACEFGFNLAKTENSEVILLHVYFTPIYASSLPYGDVFNYQIGDEESVKTIIQQVHSDLNALSDKIKEKVASGEFPDIKYSCILREGIPEEEILRYAKEQRPKVIIMGTRGKSQKDIDLIGSVTAEIIDRSRTAVLAIPENTPFKEFNEVKRIAFLTNFDQRDLIAFEAFFNTWKSFHFSVSLIHLAESKDTWNEIKLAGIKDYFQKQYPGLEIHYDVVMNDNLLKGLDKYIKDNQIDIITLTSYKRNIFARLFNPSIARKMIFHSDTPLLVING | not soluble |
| MSNEEIKNKDEQLQQDAVETEAEVVGTDADIDWNQAADEIDEKEAKIAQLEAALLVSEERVKEQQDSVLRARAEVENMRRRSEQEVDKARKFALSRFAEELLPVIDNLERAIQAADGEVEAIKPLLEGVELTHKTFVDTIAKFGLKEINPHGEVFNPEFHQAMSIQESAEHEPNTVMFVMQKGYELNGRVLRPAMVMVSK | not soluble |
| MPRGHAGDFPPPALSVRNRPGNSGLVLETCFAQLRSGRKDHGARVRNMTAPRSIVIGGGAFAGLALALALRQGLGPEVPVIVADPALALRPSRDPRATAIVAACRRLFEALGVWDEVAPTAQPIIDMVVTDSHLEDATRPVFLTFAGEVQPGEPFAHMVENRYLVEALAKRAEAEGVELRATPVTSYDARTEAIGVTLGDGSVIDASLLVAADGAKSKLRQRAGIATYGWDYDQSGIVVTVEHERDHNGCAEEHFLPAGPFAILPLTGRRSSLVWSESRRDAERIVALPEKEFQRELEKRFGLRLGDIKPLDKPKSFPLGYFVAQSFIAPRLALIGDAAHVIHPIAGQGLNMGLRDVAALAEVVVDAARLGIDPGQVDVLERYQRWRRFDTVAMGVATNGLNFLFSNNSPLLRGIRDIGLGLVDRLPPLKGAFIRQAAGLTGEIPRLLKGEALLEHHHHHH | soluble |
